Test results as given in US20260193316A1.

How the values were obtained:
Experiment in all cases: cell-based or functional assay
[1] = biological target: C1C252 (human) (UniProt P11836)
[2] = biological target: CD20WT (wild type amino acidic sequence of human CD20) (human) (UniProt P11836)
[3] = biological target: C1C3 (human) (UniProt P11836)

Measured: reduction in the hCD20+ cell population in mice (GFP+ T cells in blood)

2H7 mouse anti-human CD20 antibody
65%: all assays above
